Read-outs that look alike come from different tables or passages of the source.
B1: DnaJB11 (BiP co-chaperone, J-protein) (natural protein)
chain: GRDFYKILGVPRSASIKDIKKAYRKLALQLHPDRNPDDPQAQEKFQDLGAAYEVLSDSEKRKQYDTYGEEGLKDGHQSSHGDIFSHFFGDFGFMFGGTPRQQDRNIPRGSDIIVDLEVTLEEVYAGNFVEVVRNKPVARQAPGKRKCNCRQEMRTTQLGPGRFQMTQEVVCDECPNVKLVNEERTLEVEIEPGVRDGMEYPFIGEGEPHVDGEPGDLRFRIKVVKHPIFERRGDDLYTNVTISLVESLVGFEMDITHLDGHKVHISRDKITRPGAKLWKKGEGLPNFDNNNIKGSLIITFDVDFPKEQLTEEAREGIKQLLKQGSVQKVYNGLQGY

Legend:
[1] = molecular target: Δ131Δ with a K16C mutation (model client); assay: fluorescence polarisation
[2] = molecular target: Δ131Δ with a K16C mutation (model client); assay: fluorescence polarisation; remark: listed apart in the source
[3] = molecular target: Grp94 full-length (FL) wild type (human, UniProt P14625 22-803, biotin label (Grp94 NH3-bio), in the streptavidin pull-down); assay: pull-down
Sequence of Grp94 full-length (FL) wild type (human, UniProt P14625 22-803, biotin label (Grp94 NH3-bio), in the streptavidin pull-down) (P14625 22-803): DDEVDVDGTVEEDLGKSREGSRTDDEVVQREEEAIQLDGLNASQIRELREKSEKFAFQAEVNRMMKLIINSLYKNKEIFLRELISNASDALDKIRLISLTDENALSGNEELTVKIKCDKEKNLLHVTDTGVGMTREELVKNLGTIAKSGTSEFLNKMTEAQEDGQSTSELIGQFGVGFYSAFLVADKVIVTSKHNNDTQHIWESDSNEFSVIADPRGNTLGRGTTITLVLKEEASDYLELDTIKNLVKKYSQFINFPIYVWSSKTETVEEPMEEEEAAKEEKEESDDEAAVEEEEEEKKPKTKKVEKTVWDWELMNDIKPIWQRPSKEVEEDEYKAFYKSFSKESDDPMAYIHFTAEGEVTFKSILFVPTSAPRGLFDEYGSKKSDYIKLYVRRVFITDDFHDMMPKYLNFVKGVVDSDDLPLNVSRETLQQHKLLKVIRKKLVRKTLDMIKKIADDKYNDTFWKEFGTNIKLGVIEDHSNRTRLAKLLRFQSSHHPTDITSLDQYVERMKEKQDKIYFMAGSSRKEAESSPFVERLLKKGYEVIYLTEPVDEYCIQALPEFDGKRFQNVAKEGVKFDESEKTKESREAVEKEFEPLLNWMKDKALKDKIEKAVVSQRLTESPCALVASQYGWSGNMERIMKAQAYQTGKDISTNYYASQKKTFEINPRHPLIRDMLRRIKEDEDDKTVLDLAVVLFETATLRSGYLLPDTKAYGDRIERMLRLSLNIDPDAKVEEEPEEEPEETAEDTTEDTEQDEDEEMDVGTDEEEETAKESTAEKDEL

| Molecule | fold decrease of binding affinity against apo conditions [1] [fold] | Kd [2] [µM] | fold decrease of binding affinity against apo conditions [2] [fold] | binding result [3] |
| --- | --- | --- | --- | --- |
| Grp94 full-length (FL) wild type (from UniProt P14625 22-803) (natural protein) | 2 | 7.2 | 2 |  |
| Grp94 Δ72 (pre-N domain truncation, aa 73-803) (from UniProt P14625 73-803) (domain or fragment) | 6 |  | 4 |  |
| B1 |  |  |  | binds |
